What was measured:
[1] = molecular target: recombinant human HIRA(661–1017) (human) (UniProt P54198); test: AUC; sedimentation velocity, c(S) model in SEDFIT, 141,995×g; buffer with 300 mM NaCl, and also with 150 mM NaCl with consistent values
[2] = molecular target: recombinant human HIRA(661–1017) (human) (UniProt P54198); test: AUC; sedimentation equilibrium of the HIRA(661–1017)–CABIN1 FL complex isolated from a size-exclusion peak, slightly lower rotor speeds; 4 °C, 20 mM Tris pH 8.0, 300 mM NaCl, 1 mM TCEP; SEDPHAT ABBB model (A the HIRA trimer, B a CABIN1 monomer), apparent constants

Sequence of CABIN1 full length (FL), recombinant, Q9Y6J0 1-2220 (natural protein) (Q9Y6J0 whole entry): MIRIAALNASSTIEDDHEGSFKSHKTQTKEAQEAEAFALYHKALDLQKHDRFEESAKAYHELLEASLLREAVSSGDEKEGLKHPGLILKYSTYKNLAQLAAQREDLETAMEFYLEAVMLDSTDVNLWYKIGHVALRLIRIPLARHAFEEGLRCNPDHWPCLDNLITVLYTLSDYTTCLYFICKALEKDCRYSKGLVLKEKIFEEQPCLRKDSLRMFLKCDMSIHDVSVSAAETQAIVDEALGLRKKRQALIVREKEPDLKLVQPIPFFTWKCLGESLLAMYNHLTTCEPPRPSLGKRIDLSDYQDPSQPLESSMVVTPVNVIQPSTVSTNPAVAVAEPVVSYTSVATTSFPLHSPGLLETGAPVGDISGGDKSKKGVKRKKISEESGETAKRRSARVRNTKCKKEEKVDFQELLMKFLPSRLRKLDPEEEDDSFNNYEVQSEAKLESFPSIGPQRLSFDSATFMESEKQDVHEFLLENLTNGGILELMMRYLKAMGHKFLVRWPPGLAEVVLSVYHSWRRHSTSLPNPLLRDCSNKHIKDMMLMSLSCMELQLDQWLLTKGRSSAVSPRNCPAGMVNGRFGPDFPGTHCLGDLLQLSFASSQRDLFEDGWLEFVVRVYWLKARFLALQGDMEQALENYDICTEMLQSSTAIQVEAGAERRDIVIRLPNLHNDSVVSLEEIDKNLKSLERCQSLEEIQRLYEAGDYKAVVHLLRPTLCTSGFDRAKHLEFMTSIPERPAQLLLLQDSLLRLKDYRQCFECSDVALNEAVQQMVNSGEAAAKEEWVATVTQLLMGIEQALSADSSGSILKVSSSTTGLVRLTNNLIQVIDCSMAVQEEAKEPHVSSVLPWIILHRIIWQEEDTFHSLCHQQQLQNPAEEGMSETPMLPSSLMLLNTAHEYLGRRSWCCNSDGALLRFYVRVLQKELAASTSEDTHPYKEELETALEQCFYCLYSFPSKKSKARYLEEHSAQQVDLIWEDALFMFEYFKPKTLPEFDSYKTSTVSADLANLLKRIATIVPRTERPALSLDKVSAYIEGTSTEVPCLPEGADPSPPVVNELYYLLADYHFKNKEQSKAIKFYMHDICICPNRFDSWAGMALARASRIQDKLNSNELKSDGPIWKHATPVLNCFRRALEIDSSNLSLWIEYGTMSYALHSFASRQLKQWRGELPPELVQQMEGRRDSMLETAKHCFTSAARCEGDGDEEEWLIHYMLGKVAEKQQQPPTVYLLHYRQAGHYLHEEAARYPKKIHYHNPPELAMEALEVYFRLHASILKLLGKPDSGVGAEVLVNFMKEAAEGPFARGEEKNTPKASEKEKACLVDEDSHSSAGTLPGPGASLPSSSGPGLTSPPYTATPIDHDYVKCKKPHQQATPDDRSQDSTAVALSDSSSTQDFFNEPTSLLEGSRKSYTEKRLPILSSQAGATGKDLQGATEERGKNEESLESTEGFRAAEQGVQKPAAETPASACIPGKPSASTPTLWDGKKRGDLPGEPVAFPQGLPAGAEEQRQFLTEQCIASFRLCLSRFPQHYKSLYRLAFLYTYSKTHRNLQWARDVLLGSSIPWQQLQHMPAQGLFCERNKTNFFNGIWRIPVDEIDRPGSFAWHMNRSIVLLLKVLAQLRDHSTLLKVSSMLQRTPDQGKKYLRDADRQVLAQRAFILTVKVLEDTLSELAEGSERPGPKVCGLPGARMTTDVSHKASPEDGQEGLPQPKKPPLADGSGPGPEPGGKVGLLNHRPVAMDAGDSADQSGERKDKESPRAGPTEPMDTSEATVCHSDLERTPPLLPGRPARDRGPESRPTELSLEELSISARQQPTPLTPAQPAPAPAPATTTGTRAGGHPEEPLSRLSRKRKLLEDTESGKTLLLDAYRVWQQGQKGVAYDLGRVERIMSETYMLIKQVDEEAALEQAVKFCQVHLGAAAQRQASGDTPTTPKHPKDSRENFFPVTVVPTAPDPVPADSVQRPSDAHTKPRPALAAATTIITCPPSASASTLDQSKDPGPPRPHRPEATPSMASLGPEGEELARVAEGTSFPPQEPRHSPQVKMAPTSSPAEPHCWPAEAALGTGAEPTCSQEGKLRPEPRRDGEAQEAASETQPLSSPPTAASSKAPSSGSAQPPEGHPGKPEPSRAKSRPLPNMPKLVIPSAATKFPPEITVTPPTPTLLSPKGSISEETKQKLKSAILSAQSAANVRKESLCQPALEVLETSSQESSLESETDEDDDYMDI
Sequence of recombinant human HIRA(661–1017) (human) (P54198 661-1017): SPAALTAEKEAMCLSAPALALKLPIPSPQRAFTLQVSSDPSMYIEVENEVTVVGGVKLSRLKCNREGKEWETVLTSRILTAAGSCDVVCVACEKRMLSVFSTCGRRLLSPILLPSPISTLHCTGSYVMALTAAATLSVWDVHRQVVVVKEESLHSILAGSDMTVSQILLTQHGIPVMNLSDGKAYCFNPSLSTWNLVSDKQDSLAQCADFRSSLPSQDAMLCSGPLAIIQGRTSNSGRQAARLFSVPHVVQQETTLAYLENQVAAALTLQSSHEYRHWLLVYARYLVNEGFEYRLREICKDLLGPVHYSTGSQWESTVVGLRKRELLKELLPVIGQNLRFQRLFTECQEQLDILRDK

**Q.** Which results are given for “CABIN1 full length (FL), recombinant, Q9Y6J0 1-2220 (natural protein)”?
**A.** stoichiometry N (CABIN1 per HIRA trimer) [1]: 2; Kd, third binding event [2]: 10 µM; apparent Kd, first two binding events [2]: < 0.001 µM; stoichiometry N (CABIN1 per HIRA trimer) [2]: 2

Source: article PMC6078998
